Here are results for ten molecules from US20060193771A1 (US Dept. of Health and Human Services, published 2006).

In assay [1] the target is T1, CD30-Fc (human).
T1 construct: also called extracellular domain of CD30 fused with human IgG Fc
T1 chain: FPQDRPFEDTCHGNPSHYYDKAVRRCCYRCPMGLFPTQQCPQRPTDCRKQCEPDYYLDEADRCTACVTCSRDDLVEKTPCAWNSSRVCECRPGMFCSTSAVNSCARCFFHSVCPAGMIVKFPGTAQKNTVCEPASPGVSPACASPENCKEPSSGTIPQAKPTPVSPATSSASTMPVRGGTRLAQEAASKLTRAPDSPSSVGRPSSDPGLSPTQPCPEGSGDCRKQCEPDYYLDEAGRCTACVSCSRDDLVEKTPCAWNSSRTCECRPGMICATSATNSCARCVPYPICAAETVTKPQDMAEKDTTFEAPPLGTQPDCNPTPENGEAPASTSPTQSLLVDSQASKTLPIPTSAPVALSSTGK
Put plainly: affinity of the MAb; ELISA using CD30-Fc. Background: In an ELISA, binding on a coated surface is turned into a signal by an enzyme label.
Method: (§1) In one type of ELISA (CD30-Fc ELISA), microtiter plates were coated with 25 ng/well of CD30-Fc. Culture supernatants of hybridoma were added to the coated wells, and bound MAbs were detected with HRP-labeled rat anti-mouse kappa chain monoclonal antibody. A different format of ELISA. Ig-trap ELISA, was also carried out. MAbs were captured by anti-mouse IgG coated on the plates, and then reacted with various concentrations of CD30-Fc in solution. The bound CD30-Fc was detected with HRP-labeled goat anti-human Fc antibody.
(§2) Determination of affinity: Each MAb was titered in the CD30-Fc ELISA described above and an appropriate dilution for each MAb was selected from the liner range of the titration curves. […] The free MAb concentration in each equilibrium reaction was measured by the same ELISA using standard curves. No re-equilibrium occurred during the ELISA because of the small amounts of coated CD30-Fc and the short time of incubation. The CD30-Fc concentration giving half free MAb was the Kd.

In assay [2] the target is T2, recombinant soluble CD30 (sCD30) produced in E. coli (human).
T2 construct: also called soluble CD30 made in E. coli; extracellular domain of CD30 with His-tag
T2 chain: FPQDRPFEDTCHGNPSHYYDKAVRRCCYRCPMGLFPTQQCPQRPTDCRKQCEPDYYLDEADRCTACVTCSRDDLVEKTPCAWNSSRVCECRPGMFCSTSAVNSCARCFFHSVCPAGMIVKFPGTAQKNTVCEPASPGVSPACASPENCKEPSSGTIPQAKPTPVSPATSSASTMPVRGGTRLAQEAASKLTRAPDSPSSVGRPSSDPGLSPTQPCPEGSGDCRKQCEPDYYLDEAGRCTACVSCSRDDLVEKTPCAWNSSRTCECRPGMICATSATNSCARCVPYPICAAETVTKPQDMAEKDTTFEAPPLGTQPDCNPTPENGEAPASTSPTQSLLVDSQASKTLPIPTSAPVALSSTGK
The assay can be described thus: indirect ELISA, sCD30 coated.
Method: (§3) ELISA. The binding of anti-CD30 MAbs to sCD30 and CD30-Fc was assayed by indirect ELISAs. Microtiter plates (Costar, Cambridge, Mass.) were coated with 20 ng/well of sCD30 or CD30-Fc in PBS overnight at 4° C. After blocking with 0.5% of BSA in PBS, hybridoma supernatants or purified MAbs were added to the coated wells and incubated for 2 h at room temperature. The bound MAbs were detected with alkaline phosphatase (ALP)-labeled anti-mouse IgG (BioSource, Camarillo, Calif.) and p-nitrophenyl phosphate as the substrate.

The target in assay [3] is T1, CD30-Fc. Put plainly: indirect ELISA, CD30-Fc coated.
Method: as §3
For assay [4], the target named is T3, human CD30, native, expressed on cells (human).
T3 construct: also called native CD30; CD30 on L540, L428, A431/CD30, Karpas299, SUDHL-1 and other CD30-positive cells
T3 chain: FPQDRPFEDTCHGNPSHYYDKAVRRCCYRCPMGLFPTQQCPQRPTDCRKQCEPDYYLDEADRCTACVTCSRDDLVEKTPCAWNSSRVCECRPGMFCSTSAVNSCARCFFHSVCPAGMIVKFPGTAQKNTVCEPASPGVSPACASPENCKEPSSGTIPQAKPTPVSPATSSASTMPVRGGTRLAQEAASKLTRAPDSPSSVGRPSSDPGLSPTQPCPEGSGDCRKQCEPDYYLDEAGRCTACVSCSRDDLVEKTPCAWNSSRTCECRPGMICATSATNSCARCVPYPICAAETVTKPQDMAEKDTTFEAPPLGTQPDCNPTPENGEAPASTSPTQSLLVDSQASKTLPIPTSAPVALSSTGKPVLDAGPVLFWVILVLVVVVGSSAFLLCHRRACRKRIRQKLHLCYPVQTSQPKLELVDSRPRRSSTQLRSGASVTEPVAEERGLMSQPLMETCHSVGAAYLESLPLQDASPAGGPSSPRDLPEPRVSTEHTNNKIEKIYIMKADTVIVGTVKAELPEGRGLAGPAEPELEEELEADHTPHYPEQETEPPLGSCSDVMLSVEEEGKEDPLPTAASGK
Put plainly: FACS, L428 cells, MAb 5 µg/ml, control HeFi-I. (A flow cytometer gives signals particle by particle.)
Method: (§4) FACS Analysis. FACS analysis was performed to measure the binding of the MAbs or immunotoxins to native CD30 expressed on various cell lines. […] After incubation for 1 h at 4° C., the cells were washed twice with the same buffer and incubated with FITC-labeled goat mouse IgG (BioSource). After washing, the cells were suspended in 1 ml of the buffer, and the fluorescence associated with the live cells was measured using a FACS Calibur flow cytometer (Beckman Coulter, Fullerton, Calif.).
(§5) The binding activity of the MAbs to native CD30 on cells was measured.

Assay [5] has as its target T3, human CD30, native, expressed on cells. The assay can be described thus: FACS, L540 cells, MAb 5 µg/ml, control HeFi-I.
Method: as §4, §5
Assay [6] has as its target T1, CD30-Fc. The assay can be described thus: ELISA using CD30-Fc (equilibrium in solution).
Method: as §1, §2
Assay [7] addresses T3, human CD30, native, expressed on cells. The assay can be described thus: competitive FACS on L540 cells, unlabeled MAb 2.5 µg/ml; competitor: biotin-T6.
Method: as §4
(§6) These MAbs were further characterized for their topographical epitopes by a competitive binding assay using FACS analysis. […] Some of the MAbs were biotinylated as the indicators and incubated with L540 cells in the presence of various concentrations of unlabeled MAbs as the competitors.
For assay [8] the target is unchanged. The assay can be described thus: competitive FACS on L540 cells, unlabeled MAb 2.5 µg/ml; competitor: biotin-T14.
Method: as §6
The target is the same in assay [9]. The assay can be described thus: competitive FACS on L540 cells, unlabeled MAb 2.5 µg/ml; competitor: biotin-T24.
Method: as §6
For assay [10] the target is unchanged. The assay can be described thus: competitive FACS on L540 cells, unlabeled MAb 2.5 µg/ml; competitor: biotin-T25.
Method: as §6
Assay [11] shares this target. Put plainly: competitive FACS on L540 cells, unlabeled MAb 2.5 µg/ml; competitor: biotin-HRS-4.
Method: as §6
Assay [12] has the same target. The assay can be described thus: competitive FACS on L540 cells, unlabeled MAb 2.5 µg/ml; competitor: biotin-HeFi-I.
Method: as §6

B1: T427 MAb (antibody, V domains shown)
VH: QVQLQQPGTELVRPGASVKLSCKASGFSFTSYWMNWVKQRPGQGLEWIGMIHPSDSETRLNQKFKDRATLTVDKSSSTAYMQLSSPTSEDSAVYYCASEMDYYFAMDYWGQGTSVTVSS
VL: DIVLTQSPTSLAVSLGQRATISCRASESVDSYGNSFMHWFQQKPGQPPKLLIYRASNLESGIPARFSGSGSWTDFTLTINPVEADDVATYYCQQSNEDPRTFGGGTKLEIKR
As to B1, the Kd (commonly a measure of binding affinity in units of concentration) with CD30-Fc [1] was 0.9 nM.

B2: T24 MAb (antibody, V domains shown)
VH: QVQLQQPGAELVRPGASVKLSCKASGYSFTSYWIDWVKQRPGQGLEWIGNIYPSNAYTNYNQKFKDKATLTVDKSSSTAYMQLSSPTSEDSAVYYCTSVLDYFYAMDYWGQGTSVTVSS
VL: DIQMTQTTSSLSASLGDRVTISCRASQDISNYLNWYQQKPDGTVKLLIYYTSRLHSGVPSRFSGSGSGTDYSLTISNLEQEDIATYFCQQVNTLPRTFGGGTKLEIKR
Turning to B2, the “titer in ELISA” value in [2] is 102 mL/µg; in the assay with CD30-Fc [3], 179 mL/µg. Also, the Kd with CD30-Fc [1] and in the assay with CD30-Fc [6] was 2.2 nM throughout. For the same molecule, the “relative reactivity in FACS (% of control)” value in assay [4] is 160 % of control; in [5] it was 117 % of control. For the same molecule, the “inhibition of the binding of biotin-MAb (%)” value (shortened to “inhibition … (%)”) in assay [7] was determined as 1.5%; in assay [8], 16.1%; in assay [9], 82.8%; in assay [10], 97.8%; in [11], 52.2%; in assay [12], 79.8%.

B3: T201 MAb (antibody, V domains shown)
VH: QVQLKESGPGLVAPSQSLSITCTVSGFSLIDYGVSWVRQPPGKGLEWLGMIWGDGNTDYNSGLKSRLSISKDNSKSQVFLKVNSLQTDDTARYYCARPSTGTLFAYWGQGTLVTVSA
VL: EIVLTQSPTTMAASPGERITFTCSASSGISSIYLHWYQQKPGFSPKLLIYRTSNLASGVPPRFSGSGSGTSYSLTIGTMEAEDVATYYCQQGSSIPLTFGAGTKLELKR
Take B3: binding in the assay with CD30-Fc [1] was characterised by a dissociation constant (Kd) of 8.3 nM.

B4: T25 MAb (antibody, V domains shown)
VH: QVTLKESGPGILQPSQTLSLTCSFSGFSLNTSGVGVGWIRQPSGKGLEWLAHIWWDDDERYNPVLKSRLTISKDTSSNQVFLKIANVDTADSATYYCVRSMVAWFPYWGRGTLVTVSA
VL: DIVMSQSPSSLAVSVGEKFTVNCKSSQSLLYSSNQKNFLAWYQQKPGQSPKLLIYWASTRESGVPDRFIGSGSGTDFTLTISSVKAEDLAVYYCQQHYRYPWTFGGGTKLEIKR
For the molecule B4, the entries for the “titer in ELISA” value (in assay [2]; with CD30-Fc [3]) were 135 mL/µg and 50 mL/µg, respectively. The dissociation constant Kd in the assay with CD30-Fc [1] and with CD30-Fc [6] was 6.4 nM in each case. Moreover, the results for the “relative reactivity in FACS (% of control)” value in assay [4] and in assay [5] were 80 % of control and 27.8 % of control, respectively. Further, the “inhibition … (%)” value in [7] was 1.5%; in [8], -1.3%; in [9], 0%; in assay [10], 79.8%; in [11] it was 0%; in assay [12], 0%.

B5: T6 MAb (antibody, V domains shown)
VH: QVQLKESGPGLVTPSQSLSITCTVSGFSLSKYSIHWVRQPPGRGLEWLGMIWGVENTDYNSALKSRLSISKDNSKSQVFLKMNSLQSDDTAMYYCARKDLGLYGMNYWGQGISVTVSA
VL: DIVMTQSQKFMSTSVGDRVSVTCKASQNVGTNVAWYQQKPGQSPKALFYSASYRYSGVPDRFIGSGSGTVFTLTISNVQSEDLAEYFCQQYNTYPLTFGSGTKLEIER
Take B5: the entries for the “titer in ELISA” value (in [2]; in the assay with CD30-Fc [3]) were 74.1 mL/µg and 40 mL/µg, respectively. For the same molecule, the Kd in the assay with CD30-Fc [1] and with CD30-Fc [6] was 13 nM in each case. Besides, the figures for the “relative reactivity in FACS (% of control)” value in assay [4] and in [5] were 140 % of control and 111 % of control, respectively. Further, the “inhibition … (%)” value in assay [7] turned out to be 100%; in assay [8] it was 108%; in assay [9] it was 3.9%; in assay [10], 25%; in assay [11] it was 97.9%; in assay [12] it was 0%.

B6: T105 MAb (antibody, V domains shown)
VH: QVTLKESGPGILQPSQTLSLTCSFSGFSLSTSGMGVSWIRQPSGKDLEWLAHIYWDDDKRYNPSLKSRLTISKDTSSNQVFLKITSVDTADTATYYCARRADGLYFYLDVWGAGTTVTVSS
VL: DIVMTQSQKFMSTSVGDRVSVTCKASQNVNTNVAWYQQKPGQSPEALIYSASYRYSGVPDRFTGSGSGTDFTLTISNVQSEDLAEYFCQQYNSYPLTFGSGTKLEIKR
As to B6, the Kd with CD30-Fc [1] and in the assay with CD30-Fc [6] was 4.2 nM in each case.

B7: T405 MAb (antibody, V domains shown)
VH: QVQLQQIGAELVRPGASVKLSCKASGYTFNNYWINWVKQRPGQGLEWIGNIYPSDSRSNYNQKFKDKATLTVDKPSSTAYMQLSSPTSEDSAVYYCTLGSYWGQGTLVTVSA
VL: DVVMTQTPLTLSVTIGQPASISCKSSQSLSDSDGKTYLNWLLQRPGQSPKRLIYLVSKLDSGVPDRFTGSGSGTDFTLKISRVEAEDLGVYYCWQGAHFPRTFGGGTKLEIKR
In the assay with CD30-Fc [1], B7 registered a dissociation constant (Kd) of 5.7 nM.

B8: T408 MAb (antibody, V domains shown)
VH: QVQLQQPGAELVRPGASVKLSCKASGYTFTSYWINWVKQRPGQGLEWIGNIYPSDSYSNYNQKFKDKATLTVDKSSSTAYMQLSSPTSEDSAVYYCTLGSYWGQGTLVTVSA
VL: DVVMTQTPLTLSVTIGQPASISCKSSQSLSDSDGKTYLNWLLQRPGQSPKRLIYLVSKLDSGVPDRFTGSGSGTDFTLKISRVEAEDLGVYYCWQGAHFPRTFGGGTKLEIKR
Molecule B8 gave a Kd with CD30-Fc [1] of 6.4 nM. The Kd values of the last two molecules are within 1.5-fold of each other.

B9: T13 MAb (antibody, V domains shown)
VH: QVQLQQSGAELAKPGASVKMSCKASGYTFTTYWMHWVKQRPGQGLEWIGYINPSTGYTDYNEKFKDKATLTADKSSSTAYMQLSSLTSEDSAVYYCVRRGSYDGNPFAYWGQGTLVSVSA
VL: DIVMTQSHKFMSTSVGDRVTITCKASQDVSTAVAWYQQKPGHSPKLLIYWASTRHTGVPDRFTGSGSGTDYTLTISSVQVEDLALYYCQQHYSTPFTFGSGTKLEIKR
On to B9, for which the “titer in ELISA” value in assay [2] is 87.7 mL/µg; in the assay with CD30-Fc [3], 91.2 mL/µg. For the same molecule, the Kd in the assay with CD30-Fc [1] and with CD30-Fc [6] was 3.1 nM throughout. Besides, the “relative reactivity in FACS (% of control)” value is 180 % of control in assay [4] and 111 % of control in assay [5]. Moreover, the “inhibition … (%)” value is 87.4% in assay [7]; 108% in assay [8]; 40.1% in assay [9]; 26.7% in assay [10]; 82.6% in [11]; 0% in assay [12].

B10: T420 MAb (antibody, V domains shown)
VH: QVQLQQSGAELAKPGASVKMSCKASGYTFTSYWMHWVKQRPGQDLEWIGYINPSTDYTDYNQKFKDKATLTADKSSSTAYMQLSSLTSEDSAVYYCATRHYGSSYGFAYWGQGTLVTVSA
VL: DIVMTQSHKFMSTSVGDRVSITCKASQDVSTAVAWYQQKPGQSPKLLIYWASTRHTGVPDRFTGSGSGTDYSLTISSVQAEDLAVYYCQQHYRTPFTFGSGTKLEIKR
Turning to B10, the dissociation constant (Kd) with CD30-Fc [1] and with CD30-Fc [6] was 1.9 nM in each case.
